The DeepSol protein solubility set

Assay: soluble on expression in E. coli; label from the status in PepcDB or PDB records

**Q.** Which “soluble on expression in E. coli” value does the source give for “RALDTEDIQKVFTKLPQSSAVTSDMRRTQELFVLMFLLRGLPFVDLAYLRKSDLHDNVITYRRRKTGRPLSVTLTPEAMAILKRYMNRDTSSPYLFPLLNSREGTKEAYHEYQLALRNFNRQLMLLGEMLGLGDKLSSYTARHTWATTAYYCEIHPGVISEAMGHSSITVTETYLKPFRNKKIDEANKKVVDFIKRSIPIAMC” here?
**A.** not soluble

**Q.** Which “soluble on expression in E. coli” value does the source give for “MAHHHHHHMPIHQYEGWSYERLRQQRNRAHFLLEDPYRYVTVLLISKPGRPEELKCIDSPCYHAAGPLGEGDIVEIEDLLCLRCPWHRYLVNIENGEEILLRVDPASAQGAGIVGRQAALPTYPMHFTDPSAEGVTVVHGEKVQRVHRAWLEEATGILSIEVAEEAVMRQHPVKSDKPAGNVKNGGICMQIFDIKLRGLDKL” here?
**A.** not soluble

**Q.** Which “soluble on expression in E. coli” value does the source give for “GPGSMSYYCSGGHCLKYATPGREPPDPQLFPHYMQNAQNLWLHFSEWWPHGDGGSCPAPPTKGVVFIVPGLGEHTGRYDSVALRLNQEGYVVFSMDNQGTGGSEGERLYVECFTHFVDDVCAFVVFIQTRYAALKSQPTFLMGHSMGGLIATLVAQRDASGFRGVVLSGPALGLSKPVPCFMRSLAHFLSQWFPKLPVRKLDPDLVSYNTPVVQLVKQDPFYSNVTLRARFVDEMLIAQDRAAEAAGTSQFPFLIVHGEEDQLCSLETSKSFFKSALSEDKNLVSYPRAGHEVLTELCRAEVMAEVIKFIDERAR” here?
**A.** not soluble

**Q.** With “GHMAAPILKDVVAYVEVWSSNGTENYSKTFTTQLVDMGAKVSKTFNKQVTHVIFKDGYQSTWDKAQKRGVKLVSVLWVEKCRTAGAHIDESLFPAANMNEHLS” as the sequence, how does the “soluble on expression in E. coli” value read?
**A.** soluble

**Q.** Which “soluble on expression in E. coli” value does the source give for “MEEEILSFVSIQSHVSSAGEKPIHVLDENPKFSRLHPSPSNIDSGEDSTSINKSNMESYGFSPVKIIEALIRETTAQGNVNMQRKSLFFPTQISDLFPAILNSKRKTG” here?
**A.** soluble

**Q.** For “SMSYESPFHLNDAVAIVTGAAAGIGRAIAGTFAKAGASVVVTDLKSEGAEAVAAAIRQAGGKAIGLECNVTDEQHREAVIKAALDQFGKITVLVNNAGGGGPKPFDMPMSDFEWAFKLNLFSLFRLSQLAAPHMQKAGGGAILNISSMAGENTNVRMASYGSSKAAVNHLTRNIAFDVGPMGIRVNAIAPGAIKTDALATVLTPEIERAMLKHTPLGRLGEAQDIANAALFLCSPAAAWISGQVLTVSGGGVQELD”, which “soluble on expression in E. coli” value is on record?
**A.** soluble

**Q.** With “MEVDPGGGKKPMIVKKMVAFSKREEERILLEIDLYKKLENNEFVIDLMAHIVDDITHYLLFDKYSQNFLEYIEELKIGGEVDELKHLKYFSGIVSAIEQLHGFEFAHLDIKPANILKSGDTIKMIDFGSATKMPIEIKTSADHHRHKEDAEELCSMMYRAPELFNCEIGSTLTTAVDVWALGVCLYEFLYLENPFNKIYEQGGSIALATQSPHMIKWNENRHISEKSINLIKSILIVDPNQRPTIGELRAKVDNLLANFDTPEEAENPEITDEEFDLGMRETT” as the sequence, how does the “soluble on expression in E. coli” value read?
**A.** not soluble

**Q.** For “MNNQKQQKPTLSGQRFKTRKRDEKERFDPTQFQDCIIQGLTETGTDLEAVAKFLDASGAKLDYRRYAETLFDILVAGGMLAPGGTLADDMMRTDVCVFAAQEDLETMQAFAQVFNKLIRRYKYLEKGFEDEVKKLLLFLKGFSESERNKLAMLTGVLLANGTLNASILNSLYNENLVKEGVSAAFAVKLFKSWINEKDINAVAASLRKVSMDNRLMELFPANKQSVEHFTKYFTEAGLKELSEYVRNQQTIGARKELQKELQEQMSRGDPFKDIILYVKEEMKKNNIHFMKAFQKIVVLFYKAEVLSEEPILKWYKDAHVAKGKSVFLEQMKKFVEWLKNAEEESESEAEEGD”, which “soluble on expression in E. coli” value is on record?
**A.** not soluble

**Q.** Which “soluble on expression in E. coli” value does the source give for “GSHMYEYPVFSHVQAGMFSPELRTFTKGDAERWVSTTKKASDSAFWLEVEGNSMTTPTGSKTSFPDGMLILVDPEQAVEPGDFCIARLGGDEFTFKKLIRDSGQVFLQPLNPQYPMIPCNESCSVVGKVIASQ” here?
**A.** soluble

**Q.** Which “soluble on expression in E. coli” value does the source give for “MSLAARQTVTDVDSFSKELMTASPDLLGSMVKAFAEALMGAEVDGICNAEYGEISPERVNRRNGYRAREWDTRAGTIELAVPKLRQGSYFPEWLLTRRRRAEQALISVVATSYLLGVSTRRVDKLVEQLGVAHISKSQVSVLAKHLDTQVEAFRSRPLDAGPYRFVQADALTMKVREDGRVINVHCLLAVGVNGDGHREILGLDVVSSEDGAGWLAFFRGLVARGLSGVRLVTSDAHRGLVNAIGSTLPGASWQRCRTHYLRDLLTMTPKSSQPWVATLVRTVFDQADANEVGGQFDRVTEALSEKLPKAADHLSGAKADLLAFTTYPREVWRQIWSSNPQERLNKEIRRRTDVVGIFPDRDAIIRLVGAVLAEQHDEWIETHRYFGLEILAKVDATNKKSDTPEIGVTEGHHHHHH” here?
**A.** soluble

**Q.** With “GINDLDISPIDPQTGGSFDQQGVFVKGYAMLGVTGQKGIDGSPDLDGQDEGESGFYRTTFNCNELPTDECLWAWQKNQDIPQLTSISWSPSSQRTEWVYVRLGYDITQYNFFLDQTEGMTDAETLRQRAEIRFLRALHYWYFLDLFGKAPFKEHFSNDLPVEKKGTELYTYIQNELNEIEADMYEPRQAPFGRADKAANWLLRARLYLNAGVYTGQTDYAKAEEYASKVIGSAYKLCTNYSELFMADNDENENAMQEIILPIRQDGVKTRNYGGSTYLVCGTRVAGMPRMGTTNGWSCIFARAAMVQKFFSNLEDVPMLPADVEIPTKGLDTDEQIDAFDAEHGIRTEDMIKAAGDDRALLYSGVGGGRRKIQTDAISGFTDGLSIVKWQNYRSDGKPVSHATYPDTDIPLFRLAEAYLTRAEAIFRQGGDATGDINELRKRANCTRKVQTVTEQELIDEWAREFYLEGRRRSDLVRFGMFTTNKYLWDWKGGAMNGTSVASYYNKYPIPVSDINNNRNMSQNEGYK” as the sequence, how does the “soluble on expression in E. coli” value read?
**A.** soluble

**Q.** For “MFNKKMVAMAMTVPLVMGTLSTVSAVETKKQVKVEAYSPQKKAIEYLKGNANQYGLKPDLSDLQYISTTETPVASYVRFQQVVNGAPVFSNQITVTLNGEGKGVLAVSDYQPIKAVKQVTEKISEKDAIQKSMAYVGEASEQNLWAPTEKEFGYIIEEGIARPVYKVVVHSNNPFGAWETFIDAENGKLIKKVDINRKVEGTGKVFLPNPVVSSGSLAGLKDNNDADSTALTNQLKTVTLKGLDGTGFLIGEYVTISSKARTKSTNLQFNYTRANDSFEDVMSYYHIDTLQRYIQSLGFQNINNRSIKVNVNGTTADNSFYSPTTKALTFGTGGVDDAEDAGIIAHEYGHSIQDNQVPGFGSSAEGGAMGEGFGDFLGATYEDAVSTTGYGKACVGEWDAAAYSSSDPTCLRRLDTNKVYPKDMKNQVHADGEIWSQGQYEMAQAFGRDVATKIILQSHWSLTPNSKFSDGAKAIKQADALLYGGQHAADIDRIWAARGISTN”, which “soluble on expression in E. coli” value is on record?
**A.** not soluble

**Q.** With “MTKWKRANPNGTRDYLFEECTLIEEVEQKLRLTFLERGYEEIRTPTIEFYDVFAFQNRPIDEEKMYKFFDEKGRIIVLRPDMTIPLARVIGTQRWDTPLKVTYSGNVFRANESHSGKYNEIVQSGIEVIGIDNVRAEIECVISVIQALQKLKVQSFTIEIGQVQLYKCIVKKLSIQDEEERVLRTYIESKNYAALSNFIGEKKLDRCDETVRLLEKLPRLFGNLEVIEEAEKLASSNEMKMAIARVKEMYETIEMLGYGSYISIDLGMIQHLDYYTGVIFKGYIYEIGEEIVSGGRYDELIGNFGEMLPAVGLAVQVNQIVKALQEQQEPYERNQIDIVIHYELNRLAEAERLRNLLRKDGKNAWLSLFSNLSDTFQFARKNKIGTVVEAQNEYLVEYVWNEKWVVQKEGEASCVTFKLR” as the sequence, how does the “soluble on expression in E. coli” value read?
**A.** not soluble

**Q.** With “MPAALLISGPCKICDLPAHGNHFGVLSCRACAAFFRRASRSPRFQDKACEYGDCRIFDAGAYRCKICRLKKCYKVGMDASKFQKDRDLISSSNAYLKRTKVYAPQSLANFLGRPEFIISFEPEKASPFKTVIDVTDLVHKAAEIFQEDLANSPMPYKYSNSLEKLTLEMEDLRLRSSNHKVKIVRNIGKAESLVFFEQMFLATANWYARLPDFTSLDLRVKLEILKSTWMLWIRLNKLAETAQNQRIKEMGANIFMCSENTCLNVQDINVDWSWCTNYGAEQMQAFLMPNIDKHWRQPVEDLVKLNPTDMELNFMLIQLCLNDAGKKFQGRVLEATDKLLQINADNLHNYYTKKLNMPSYSGRLTKLMKINQIVEEDVRERKEKAKIVEVFDLFSIVYSHPEMFEGT” as the sequence, how does the “soluble on expression in E. coli” value read?
**A.** not soluble

**Q.** With “WCYEIQTEDPRSSCLGPEKWPGACKENQQSPINIVTARTKVNPRLTPFILVGYDQKQQWPIKNNQHTVEMTLGGGACIIGGDLPARYEAVQLHLHWSNGNDNGSEHSIDGRHFAMEMHIVHKKLTSSKEDSKDKFAVLAFMIEVGDKVNKGFQPLVEALPSISKPHSTSTVRESSLQDMLPPSTKMYTYFRYNGSLTTPNCDETVIWTVYKQPIKIHKNQFLEFSKNLYYDEDQKLNMKDNVRPLQPLGKRQVFKSHA” as the sequence, how does the “soluble on expression in E. coli” value read?
**A.** soluble
